Measurements as given in US20200079833A1 (AstraZeneca / MedImmune, published 2020).
Starred links: 1 amine or outer side, 2 acyl side, 3 side chain; linkers in the order of their positions; H or OH if unused. Non-standard residues stand in square brackets, D forms with d. Groups on a side chain read outwards from the residue. Primed or numbered codes have the meaning given here. No end group written: not given here. *: point of attachment. γGlu = O=C(O)[C@H](CCC(=O)[*:2])N[*:1]; Stearoyl = CCCCCCCCCCCCCCCCCC(=O)*; Palmitoyl = CCCCCCCCCCCCCCCC(=O)*; αMeF = C[C@](N)(Cc1ccccc1)C(=O)O; αMeK = C[C@](N)(CCCCN)C(=O)O; αMeS = C[C@](N)(CO)C(=O)O; PEG2′ = not defined here; Aib = CC(C)(N)C(=O)O

T1: GLP-1R (INS1e assay) (UniProt P32301 22-463, limits assumed)
T1 sequence (looked up): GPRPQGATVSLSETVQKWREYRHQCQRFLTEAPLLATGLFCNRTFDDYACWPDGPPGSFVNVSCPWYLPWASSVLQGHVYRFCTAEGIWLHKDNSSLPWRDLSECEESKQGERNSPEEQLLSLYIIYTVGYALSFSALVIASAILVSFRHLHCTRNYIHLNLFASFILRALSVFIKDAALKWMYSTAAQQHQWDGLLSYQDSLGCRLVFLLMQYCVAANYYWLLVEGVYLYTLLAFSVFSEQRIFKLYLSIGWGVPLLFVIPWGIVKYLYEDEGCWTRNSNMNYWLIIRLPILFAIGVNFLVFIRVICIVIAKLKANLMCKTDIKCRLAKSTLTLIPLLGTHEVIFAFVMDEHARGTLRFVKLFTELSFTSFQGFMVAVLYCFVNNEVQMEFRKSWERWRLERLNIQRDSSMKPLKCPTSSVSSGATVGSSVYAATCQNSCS

B1: SEQ ID NO 100 (peptide)
peptide: H[Aib]EGS[αMeF]TSDV[αMeS]S[αMeF]LEGEAA[αMeK]E[αMeF]IA[αMeF]VV[αMeK]K([PEG2′-PEG2′-γGlu-Stearoyl])G-NH2
B2: SEQ ID NO 116 (peptide)
peptide: H[Aib]EGS[αMeF]TSDV[αMeS]SK([PEG2′-PEG2′-γGlu-Stearoyl])LEGEAA[αMeK]E[αMeF]IA[αMeF]VV[αMeK]GG-NH2
B3: SEQ ID NO 107 (peptide)
peptide: H[Aib]EGS[αMeF]TSDV[αMeS]S[αMeF]LEGEAA[αMeK]EK([PEG2′-PEG2′-γGlu-Stearoyl])IA[αMeF]VV[αMeK]GG-NH2
B4: SEQ ID NO 88 (peptide)
peptide: HXEGSFTSDVSKFLEGEAAKEFIAFVVKGG
modifications: Aib2; α-MeF6; α-MeS11; K12(ε-γE-Palmitoyl); α-MeF13; α-MeK20; α-MeF22; α-MeF25; α-MeK28; C-terminal amide
B5: SEQ ID NO 101 (peptide)
peptide: H[Aib]EGS[αMeF]TSDV[αMeS]S[αMeF]LEGEAA[αMeK]E[αMeF]IA[αMeF]VVK([PEG2′-PEG2′-γGlu-Stearoyl])GG-NH2
B6: SEQ ID NO 104 (peptide)
peptide: H[Aib]EGS[αMeF]TSDV[αMeS]S[αMeF]LEGEAA[αMeK]E[αMeF]IAK([PEG2′-PEG2′-γGlu-Stearoyl])VV[αMeK]GG-NH2
B7: SEQ ID NO 90 (peptide)
peptide: H[Aib]EGS[αMeF]TSDK([γGlu-Palmitoyl])[αMeS]S[αMeF]LEGEAA[αMeK]E[αMeF]IA[αMeF]VV[αMeK]GG-NH2
modifications: N-terminus assumed
SMILES: CCCCCCCCCCCCCCCC(=O)N[C@@H](CCC(=O)NCCCC[C@H](NC(=O)[C@H](CC(=O)O)NC(=O)[C@H](CO)NC(=O)[C@@H](NC(=O)[C@](C)(Cc1ccccc1)NC(=O)[C@H](CO)NC(=O)CNC(=O)[C@H](CCC(=O)O)NC(=O)C(C)(C)NC(=O)[C@@H](N)Cc1c[nH]cn1)[C@@H](C)O)C(=O)N[C@@](C)(CO)C(=O)N[C@@H](CO)C(=O)N[C@@](C)(Cc1ccccc1)C(=O)N[C@@H](CC(C)C)C(=O)N[C@@H](CCC(=O)O)C(=O)NCC(=O)N[C@@H](CCC(=O)O)C(=O)N[C@@H](C)C(=O)N[C@@H](C)C(=O)N[C@@](C)(CCCCN)C(=O)N[C@@H](CCC(=O)O)C(=O)N[C@@](C)(Cc1ccccc1)C(=O)N[C@H](C(=O)N[C@@H](C)C(=O)N[C@@](C)(Cc1ccccc1)C(=O)N[C@H](C(=O)N[C@H](C(=O)N[C@@](C)(CCCCN)C(=O)NCC(=O)NCC(N)=O)C(C)C)C(C)C)[C@@H](C)CC)C(=O)O
B8: SEQ ID NO 102 (peptide)
peptide: H[Aib]EGS[αMeF]TSDV[αMeS]S[αMeF]LEGEAA[αMeK]E[αMeF]IA[αMeF]VK([PEG2′-PEG2′-γGlu-Stearoyl])[αMeK]GG-NH2
B9: SEQ ID NO 113 (peptide)
peptide: H[Aib]EGS[αMeF]TSDV[αMeS]S[αMeF]LEK([PEG2′-PEG2′-γGlu-Stearoyl])EAA[αMeK]E[αMeF]IA[αMeF]VV[αMeK]GG-NH2
B10: SEQ ID NO 112 (peptide)
peptide: H[Aib]EGS[αMeF]TSDV[αMeS]S[αMeF]LEGK([PEG2′-PEG2′-γGlu-Stearoyl])AA[αMeK]E[αMeF]IA[αMeF]VV[αMeK]GG-NH2
B11: SEQ ID NO 110 (peptide)
peptide: H[Aib]EGS[αMeF]TSDV[αMeS]S[αMeF]LEGEAK([PEG2′-PEG2′-γGlu-Stearoyl])[αMeK]E[αMeF]IA[αMeF]VV[αMeK]GG-NH2
B12: SEQ ID NO 111 (peptide)
peptide: H[Aib]EGS[αMeF]TSDV[αMeS]S[αMeF]LEGEK([PEG2′-PEG2′-γGlu-Stearoyl])A[αMeK]E[αMeF]IA[αMeF]VV[αMeK]GG-NH2
B13: SEQ ID NO 115 (peptide)
peptide: H[Aib]EGS[αMeF]TSDV[αMeS]S[αMeF]K([PEG2′-PEG2′-γGlu-Stearoyl])EGEAA[αMeK]E[αMeF]IA[αMeF]VV[αMeK]GG-NH2
B14: SEQ ID NO 91 (peptide)
peptide: H[Aib]EGS[αMeF]TSK([γGlu-Palmitoyl])V[αMeS]S[αMeF]LEGEAA[αMeK]E[αMeF]IA[αMeF]VV[αMeK]GG-NH2
modifications: N-terminus assumed
SMILES: CCCCCCCCCCCCCCCC(=O)N[C@@H](CCC(=O)NCCCC[C@H](NC(=O)[C@H](CO)NC(=O)[C@@H](NC(=O)[C@](C)(Cc1ccccc1)NC(=O)[C@H](CO)NC(=O)CNC(=O)[C@H](CCC(=O)O)NC(=O)C(C)(C)NC(=O)[C@@H](N)Cc1c[nH]cn1)[C@@H](C)O)C(=O)N[C@H](C(=O)N[C@@](C)(CO)C(=O)N[C@@H](CO)C(=O)N[C@@](C)(Cc1ccccc1)C(=O)N[C@@H](CC(C)C)C(=O)N[C@@H](CCC(=O)O)C(=O)NCC(=O)N[C@@H](CCC(=O)O)C(=O)N[C@@H](C)C(=O)N[C@@H](C)C(=O)N[C@@](C)(CCCCN)C(=O)N[C@@H](CCC(=O)O)C(=O)N[C@@](C)(Cc1ccccc1)C(=O)N[C@H](C(=O)N[C@@H](C)C(=O)N[C@@](C)(Cc1ccccc1)C(=O)N[C@H](C(=O)N[C@H](C(=O)N[C@@](C)(CCCCN)C(=O)NCC(=O)NCC(N)=O)C(C)C)C(C)C)[C@@H](C)CC)C(C)C)C(=O)O
B15: SEQ ID NO 105 (peptide)
peptide: H[Aib]EGS[αMeF]TSDV[αMeS]S[αMeF]LEGEAA[αMeK]E[αMeF]IK([PEG2′-PEG2′-γGlu-Stearoyl])[αMeF]VV[αMeK]GG-NH2
B16: SEQ ID NO 103 (peptide)
peptide: H[Aib]EGS[αMeF]TSDV[αMeS]S[αMeF]LEGEAA[αMeK]E[αMeF]IA[αMeF]K([PEG2′-PEG2′-γGlu-Stearoyl])V[αMeK]GG-NH2
B17: SEQ ID NO 109 (peptide)
peptide: H[Aib]EGS[αMeF]TSDV[αMeS]S[αMeF]LEGEAAK([PEG2′-PEG2′-γGlu-Palmitoyl])E[αMeF]IA[αMeF]VV[αMeK]GG-NH2
B18: SEQ ID NO 108 (peptide)
peptide: H[Aib]EGS[αMeF]TSDV[αMeS]S[αMeF]LEGEAA[αMeK]K([PEG2′-PEG2′-γGlu-Stearoyl])[αMeF]IA[αMeF]VV[αMeK]GG-NH2
B19: SEQ ID NO 87 (peptide)
peptide: H[Aib]EGS[αMeF]TSDV[αMeS]SK([γGlu-Palmitoyl])LEGEAA[αMeK]E[αMeF]IA[αMeF]VV[αMeK]GG-NH2
modifications: N-terminus assumed
SMILES: CCCCCCCCCCCCCCCC(=O)N[C@@H](CCC(=O)NCCCC[C@H](NC(=O)[C@H](CO)NC(=O)[C@](C)(CO)NC(=O)[C@@H](NC(=O)[C@H](CC(=O)O)NC(=O)[C@H](CO)NC(=O)[C@@H](NC(=O)[C@](C)(Cc1ccccc1)NC(=O)[C@H](CO)NC(=O)CNC(=O)[C@H](CCC(=O)O)NC(=O)C(C)(C)NC(=O)[C@@H](N)Cc1c[nH]cn1)[C@@H](C)O)C(C)C)C(=O)N[C@@H](CC(C)C)C(=O)N[C@@H](CCC(=O)O)C(=O)NCC(=O)N[C@@H](CCC(=O)O)C(=O)N[C@@H](C)C(=O)N[C@@H](C)C(=O)N[C@@](C)(CCCCN)C(=O)N[C@@H](CCC(=O)O)C(=O)N[C@@](C)(Cc1ccccc1)C(=O)N[C@H](C(=O)N[C@@H](C)C(=O)N[C@@](C)(Cc1ccccc1)C(=O)N[C@H](C(=O)N[C@H](C(=O)N[C@@](C)(CCCCN)C(=O)NCC(=O)NCC(N)=O)C(C)C)C(C)C)[C@@H](C)CC)C(=O)O
B20: SEQ ID NO 99 (peptide)
peptide: H[Aib]EGS[αMeF]TSDV[αMeS]S[αMeF]LEGEAA[αMeK]E[αMeF]IA[αMeF]VV[αMeK]GK([PEG2′-PEG2′-γGlu-Stearoyl])-NH2

These binders were tested against T1, GLP-1R (INS1e assay) (assay: cell-based or functional assay).

Row | INS1e assay EC50 GLP-1 R n1 | INS1e assay EC50 GLP-1 R n2 | INS1e assay EC50 Mean pM GLP-1R | Binder
1 | 233 pM | 1410 pM | 822 pM | B1
2 | 1610 pM | 610 pM | 1110 pM | B2
3 | 5230 pM | 11700 pM | 8460 pM | B3
4 | 277 pM | 415 pM | 346 pM | B4
5 | 1470 pM | 6650 pM | 4060 pM | B5
6 | 391 pM | 270 pM | 331 pM | B6
7 | 43.4 pM | 58.6 pM | 51 pM | B7
8 | 4220 pM | 2890 pM | 3560 pM | B8
9 | 823 pM | 1260 pM | 1040 pM | B9
10 | 294 pM | 476 pM | 385 pM | B10
11 | 31600 pM | 23100 pM | 27400 pM | B11
12 | 501 pM | 1110 pM | 806 pM | B12
13 | 593 pM | 494 pM | 544 pM | B13
14 | 1930 pM | 3500 pM | 2720 pM | B14
15 | 220 pM | 1720 pM | 970 pM | B15
16 | 428 pM | 590 pM | 509 pM | B16
17 | 8350 pM | 4320 pM | 6340 pM | B17
18 | 38 pM | 458 pM | 248 pM | B18
19 | 43.6 pM | 62.2 pM | 53 pM | B19
20 | 11000 pM | 5880 pM | 8440 pM | B20
